Measurements reported in the supplement of paper PMC10724198.
± gives the standard deviation of the averaged measurements.

Test system: Saccharomyces cerevisiae
Assay: protein stability index of tFT-peptide fusion (C-terminal peptide) (PSI (0-1 scale)); higher = more stable (slower turnover)
Conditions: temperature: 30 C
Procedure: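 MPS profiling in S. cerevisiae of the yeast C-terminome library: the last 12 aa of each annotated ORF are fused to the C-terminus of a sfGFP-mCherry timer, after a GGGS linker. Cells are FACS-sorted into 8 mCherry/sfGFP bins and deep-sequenced. PSI runs from 0 (unstable) to 1 (stable); wild type and das1Δ backgrounds, two technical replicates each.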

[1] = genetic background: das1 deletion

Sequence | protein stability index [1] | protein stability index (genetic background: wild type)
ADESKKEITTGR [MPC2 C-terminal 12 aa] | 0.714 ± 0.022 | 0.653 ± 0.018
INEDNKAYSLDY [RIM4 C-terminal 12 aa] | 0.69877 ± 0.00035 | 0.722 ± 0.026
FVFVNEFDVYTY [GPI12 C-terminal 12 aa] | 0.716 ± 0.018 | 0.704 ± 0.033
SQRPAKGVPEGF [VPS72 C-terminal 12 aa] | 0.69 ± 0.024 | 0.733 ± 0.051
HAAEQILKHFAA [THI4 C-terminal 12 aa] | 0.697 ± 0.013 | 0.708 ± 0.015
KRAELASKYIYS [COG8 C-terminal 12 aa] | 0.713 ± 0.022 | 0.692 ± 0.015
TDGLNVWKTISV [RRB1 C-terminal 12 aa] | 0.661 ± 0.023 | 0.6468 ± 0.0058
CNVCLFPDMYAR [CTF19 C-terminal 12 aa] | 0.71 ± 0.01 | 0.727 ± 0.039
VHCGCRGCASTD [BUD31 C-terminal 12 aa] | 0.669 ± 0.0018 | 0.673 ± 0.017
KIRPTFGDNQAS [HST3 C-terminal 12 aa] | 0.6923 ± 0.001 | 0.73 ± 0.043
FVDGIANSKKST [SRB7 C-terminal 12 aa] | 0.699 ± 0.01 | 0.682 ± 0.023
LNNFKFKTNSKQ [XBP1 C-terminal 12 aa] | 0.713 ± 0.027 | 0.679 ± 0.022
QVYYELGQIPFE [MET18 C-terminal 12 aa] | 0.738 ± 0.0075 | 0.71 ± 0.011
LMFSKLGRYLFN [NSG1 C-terminal 12 aa] | 0.6857 ± 0.0016 | 0.655 ± 0.021
VGDLEAGLRRKK [IMG1 C-terminal 12 aa] | 0.712 ± 0.0076 | 0.6655 ± 0.0024
EKLPSKFTFKRE [ARN1 C-terminal 12 aa] | 0.696 ± 0.012 | 0.6817 ± 0.0011
ALWKEKKEKPRS [RPS23A C-terminal 12 aa] | 0.709 ± 0.01 | 0.687 ± 0.03
HSITEGSYIYIK [YOR062C C-terminal 12 aa] | 0.687 ± 0.062 | 0.676 ± 0.05
PLCYWHYSADTY [YIL105W-A C-terminal 12 aa] | 0.7217 ± 0.0058 | 0.808 ± 0.039
NKPKGPLRKRRT [TWF1 C-terminal 12 aa] | 0.7 ± 0.017 | 0.672 ± 0.011
THENIHQKFVQF [SFB3 C-terminal 12 aa] | 0.7294 ± 0.004 | 0.6358 ± 0.0022

Sequence | protein stability index [1] | protein stability index (genetic background: wild type)
LLCRDSSREVGE [YBL113C C-terminal 12 aa] | 0.702 ± 0.022 | 0.673 ± 0.014
FKVDDNVDFPSA [RPN2 C-terminal 12 aa] | 0.681 ± 0.016 | 0.744 ± 0.089
VVEALRDAVGDV [NBP35 C-terminal 12 aa] | 0.706 ± 0.014 | 0.696 ± 0.02
RMHRRLPFPTLN [YJR142W C-terminal 12 aa] | 0.699 ± 0.025 | 0.548 ± 0.013
LLNDIKRRNMGR [MET28 C-terminal 12 aa] | 0.6834 ± 0.0045 | 0.723 ± 0.12
NKDTMQLFRAYL [CIN2 C-terminal 12 aa] | 0.7695 ± 0.0014 | 0.834 ± 0.04
FGLFKKKNKSKK [SVL3 C-terminal 12 aa] | 0.727 ± 0.027 | 0.726 ± 0.073
ALFKAAGGKIKK [YLF2 C-terminal 12 aa] | 0.6703 ± 0.0023 | 0.66 ± 0.011
KFETPGEYKKRI [LCL3 C-terminal 12 aa] | 0.697 ± 0.029 | 0.712 ± 0.019
YDENSKPKGTKE [FUN30 C-terminal 12 aa] | 0.6948 ± 0.0051 | 0.704 ± 0.016
SSGADNSASSNQ [PAM16 C-terminal 12 aa] | 0.684 ± 0.014 | 0.667 ± 0.029
LMVENFRKEYII [PTI1 C-terminal 12 aa] | 0.7001 ± 0.002 | 0.547 ± 0.031
GIYSAVIDQTGF [RRP9 C-terminal 12 aa] | 0.705 ± 0.011 | 0.6868 ± 0.003
TTRYAKEMNIIS [HIR2 C-terminal 12 aa] | 0.694 ± 0.031 | 0.705 ± 0.054
ILEAWEKVDDSL [SNX4 C-terminal 12 aa] | 0.734 ± 0.013 | 0.734 ± 0.016
KTSNTKVSSRKA [ELO3 C-terminal 12 aa] | 0.6964 ± 0.0051 | 0.673 ± 0.03
TEEMKDAEEMKQ [RIX7 C-terminal 12 aa] | 0.685 ± 0.014 | 0.661 ± 0.017
TFGKCILDGFKA [SCM4 C-terminal 12 aa] | 0.709 ± 0.017 | 0.687 ± 0.05
YKELVKKIESKN [CIT1 C-terminal 12 aa] | 0.7257 ± 0.0054 | 0.7078 ± 0.0025
FPKLALVCTIFS [YGR146C-A C-terminal 12 aa] | 0.369 ± 0.019 | 0.403 ± 0.009
VSKMDCDPLTVA [NIF3 C-terminal 12 aa] | 0.678 ± 0.027 | 0.676 ± 0.025

Sequence | protein stability index [1] | protein stability index (genetic background: wild type)
QMRKNMTRTDEK [PKH1 C-terminal 12 aa] | 0.671 ± 0.056 | 0.714 ± 0.026
RNNEHSHKKYNQ [YER090C-A C-terminal 12 aa] | 0.711 ± 0.0081 | 0.729 ± 0.092
EHYSDGDVCIII [DAL3 C-terminal 12 aa] | 0.68 ± 0.032 | 0.68 ± 0.016
LIWLTIIYQALT [IRC18 C-terminal 12 aa] | 0.249 ± 0.015 | 0.269 ± 0.0048
ACHMAKPLKLPT [YHR032C-A C-terminal 12 aa] | 0.679 ± 0.017 | 0.673 ± 0.029
KEQEESEKDKEN [BFR1 C-terminal 12 aa] | 0.732 ± 0.015 | 0.69 ± 0.05
KALELILNILEH [SNU56 C-terminal 12 aa] | 0.683 ± 0.033 | 0.667 ± 0.012
WPRVASNSGVVV [RPL23A C-terminal 12 aa] | 0.7042 ± 0.0044 | 0.679 ± 0.018
LSAGFGIGEFML [YGR079W C-terminal 12 aa] | 0.72 ± 0.023 | 0.692 ± 0.036
HVKDHQPGKPFI [YDR433W C-terminal 12 aa] | 0.689 ± 0.023 | 0.708 ± 0.063
DNDIYNTISEVR [RAD9 C-terminal 12 aa] | 0.697 ± 0.022 | 0.727 ± 0.024
VVCFVSYQKLSS [OPI9 C-terminal 12 aa] | 0.635 ± 0.011 | 0.168 ± 0.026
VDFIKEFAEKNA [SER1 C-terminal 12 aa] | 0.708 ± 0.011 | 0.706 ± 0.014
LYGPSKTRKFFD [VMA4 C-terminal 12 aa] | 0.724 ± 0.027 | 0.692 ± 0.011
KAVEFTTTALSS [MKT1 C-terminal 12 aa] | 0.715 ± 0.0089 | 0.747 ± 0.11
YFVNNIIVRIQS [YKL118W C-terminal 12 aa] | 0.559 ± 0.009 | 0.329 ± 0.028
ISDNVPKEAIIM [PSA1 C-terminal 12 aa] | 0.686 ± 0.023 | 0.631 ± 0.034
EEFLTLLGRRSI [FOL2 C-terminal 12 aa] | 0.708 ± 0.01 | 0.723 ± 0.012
ISSKSIPSVDDK [YIL071W-A C-terminal 12 aa] | 0.677 ± 0.025 | 0.706 ± 0.067
SMDEEFKNMDCI [SIR3 C-terminal 12 aa] | 0.706 ± 0.0084 | 0.701 ± 0.05
RAVSGVELRIYV [POP7 C-terminal 12 aa] | 0.644 ± 0.012 | 0.641 ± 0.017

Sequence | protein stability index [1] | protein stability index (genetic background: wild type)
RKTIRRDLASLV [TMA108 C-terminal 12 aa] | 0.691 ± 0.01 | 0.571 ± 0.031
VTFLVFANLRLW [YBR223W-A C-terminal 12 aa] | 0.566 ± 0.013 | 0.575 ± 0.027
NPEATTKPKPRL [PTC5 C-terminal 12 aa] | 0.752 ± 0.0099 | 0.81 ± 0.049
NPNSLPLQPIAN [MSC2 C-terminal 12 aa] | 0.704 ± 0.018 | 0.691 ± 0.015
SKEKARALGSNF [GTT1 C-terminal 12 aa] | 0.712 ± 0.016 | 0.686 ± 0.013
RDMVELMKFYEL [HOS1 C-terminal 12 aa] | 0.715 ± 0.0096 | 0.6886 ± 0.0047
IVPLSELEKTLI [XKS1 C-terminal 12 aa] | 0.696 ± 0.016 | 0.687 ± 0.0097
VPGNPGVVFQNI [CDC60 C-terminal 12 aa] | 0.708 ± 0.018 | 0.75 ± 0.082
TTHGLKQKLQHA [RTN2 C-terminal 12 aa] | 0.701 ± 0.011 | 0.698 ± 0.024
CGGKRNLQRNNF [YLR149C-A C-terminal 12 aa] | 0.703 ± 0.017 | 0.6759 ± 0.0037
NGTAKSAQSTTV [YAR019W-A C-terminal 12 aa] | 0.67513 ± 0.00026 | 0.729 ± 0.016
EIASCSSSIYSE [DSE3 C-terminal 12 aa] | 0.696 ± 0.022 | 0.711 ± 0.035
NEEMIRKLKAAK [JID1 C-terminal 12 aa] | 0.674 ± 0.015 | 0.662 ± 0.021
IEAPQFYRYWSA [SWI3 C-terminal 12 aa] | 0.724 ± 0.033 | 0.706 ± 0.011
TEFMNFWINVLP [RSC4 C-terminal 12 aa] | 0.725 ± 0.028 | 0.715 ± 0.02
ASSIYIIFDYEN [BUB3 C-terminal 12 aa] | 0.6561 ± 0.0041 | 0.637 ± 0.025
CTKHRFGYQNWI [ARP6 C-terminal 12 aa] | 0.692 ± 0.0049 | 0.692 ± 0.012
IQESRFNFYLIT [RKM5 C-terminal 12 aa] | 0.683 ± 0.023 | 0.6241 ± 0.0035
IVALILNTRGSE [VMA11 C-terminal 12 aa] | 0.683 ± 0.0096 | 0.668 ± 0.028
